Literature values, collected in patent US20260069559A1, “COMBINATIONS OF RXFP1 MODULATORS AND SGLT2 INHIBITORS” (ASTRAZENECA AB, priority 2022, published 2026).

Details: after receiving serelaxin intravenously; fraction of patients

For serelaxin, the “patients who experienced a significant blood pressure drop (>40 mm Hg)” value is listed as “approximately one third”.
